Laboratory results taken from patent US7708999B2, “Remedies for arthritis” (Kyowa Hakko Kirin Co., Ltd., priority 2001, dated 2010).

Key:
[1] = tested on: rabbit articular chondrocytes; experiment: Promotion of production of matrix metalloproteinase-3 from rabbit chondrocytes with FGF-8; format: cell-based; settings: 48 hours
Protocol: Rabbit articular chondrocytes were isolated and cultured by the method described in Example 1. After the chondrocytes became confluent, the culture solution was replaced with 0.5 vol % FBS/DMEM, followed by the culturing for 24 hours. The culture solution was removed, and 1 mL of 0.5 vol % FBS/DMEM (non-stimulated group), 0.5 vol % FBS/DMEM comprising FGF-8 (100 ng/mL)(0 group) or 0.5 vol % FBS/DMEM comprising FGF-8 (100 ng/mL) and anti-FGF-8 neutralizing antibody KM1334 (1, 3 or 10 μg/mL) was added, followed by the culturing for 48 hours. After 48 hours, the culture medium was recovered, the matrix metalloproteinase-3 concentration in the culture medium was measured using rabbit matrix metalloproteinase-3 ELISA system (manufactured by Amersham Biosciences). Three experiments were performed for each condition, and the mean values and the standard error were calculated.

[2] = tested on: rabbit articular chondrocytes; experiment: Degradation of extracellular matrix of rabbit chondrocytes with FGF-8; format: cell-based; settings: 48 hours, FGF-8 1, 10 or 100 ng/mL tested
Protocol: Rabbit articular chondrocytes were isolated from both knees and shoulders of 3-week-old New Zealand white female rabbits and cultured according to the method of Tamura et al. (Tamura T. et al., Eur. J. Pharmacol., 419, 269-274, 2001). That is, the joints of both knees and the joints of both shoulders were isolated to collect the epiphyseal cartilages. […] The culture solution was removed, and the amount of glycosaminoglycan in extracellular matrix remaining on the plate was measured by the dimethymethylene blue (DMMB) method (Chandrasekhar S. et al., Anal. Biochem. 161 103-108, 1987). […] To 75 μL of this digested solution were added 25 μL of a guanidine hydrochloride buffer (2.88 mol/L guanidine hydrochloride, 50 mmol/L sodium acetate, pH 6.8) and 200 μL of a DMMB solution, and the absorbance was measured at 530/590 nm. The concentration of glycosaminoglycan of each sample was calculated from the absorbance of chondroitin sulfate (derived from whale cartilages, manufactured by Seikagaku Kogyo) used as a standard. Three experiments were performed for each condition and the mean values and the standard error were calculated.

rabbit synovial cells = experiment: Promotion of growth of rabbit synovial cells with FGF-8 ([3H]thymidine incorporation); format: cell-based; settings: FGF-8 1, 10 or 100 ng/mL tested
Protocol: (§1) Rabbit synovial cells were collected by the method of Hamilton et al. (Hamilton J. A. and Slywka J., J. Immunol. 126, 851-855, 1981). The isolated synovial cells were suspended in RPMI 1640 medium comprising 10 vol % FBS (FBS-comprising RPMI 1640 medium is hereinafter referred to as FBS/RPMI 1640), and 10,000 cells was inoculated at each well of a 96-well culture plate. After 24 hours of the culturing, the culture medium of each well was removed, and 200 μL of 0.2 vol % FBS/RPMI 1640 (non-stimulated group) or 0.2 vol % FBS/RPMI 1640 comprising FGF-8 (1, 10 or 100 ng/mL) was added. When the activity of the anti-FGF-8 neutralizing antibody was examined, 200 μL of 0.2 vol % FBS/RPMI 1640 comprising FGF-8 (100 ng/mL) (0 group) or 0.2 vol % FBS/RPMI 1640 comprising FGF-8 (100 ng/mL) and anti-FGF-8 neutralizing antibody KM1334 (0.1, 0.3, 1, 3 or 10 μg/ml) was added to each well. After 48 hours of the culturing, 9.25 kBq per well of [^3H]thymidine was added. The culturing was further performed for 24 hours, and the radioactivity of [^3H]thymidine incorporated in the cells was measured using a liquid scintillation counter (1205 Beta Plate, manufactured by Perkin Elmer Life Science Japan). Six experiments were performed for each condition, and the mean values and the standard error were calculated.

[3] = tested on: knee joint of Sprague-Dawley rats; experiment: Induction of arthritis by intraarticular injection of FGF-8; format: in vivo, rat; settings: 50 μL of 1 mg/mL FGF-8 into knee joint of rats, after 3 days
Protocol: Arthritis-like phenotypes were induced in Sprague-Dawley rats (male, 7 weeks old, Japan Charles River) using FGF-8 in the following manner. Fifty μL of FGF-8 solution prepared with saline(manufactured by Otsuka Seiyaku Kojo) to a final concentration of 1 mg/mL was injected into the each knee joint of rats. Further, a group that injected 50 μL of saline into the knee joint was also prepared. One group consisted of 3 rats. After 3 days from the injection of FGF-8 or saline, the inside of the knee articular capsule was washed with 30 μL of saline comprising 0.38 w/v % sodium citrate to collect the lavage fluid, according to the method of Yamada et al (Yamada A. et al., Inflamm. Res., 49, 144-146, 2000). This procedure was repeated ten times to recover 300 μL of the joint lavage fluid. The amount of glycosaminoglycan in the joint lavage fluid was measured by the DMMB method described in Example 1. The patella of the knee joint was isolated, and the cartilaginous portion was digested with papain by the method described in Example 1 to measure the […].

[4] = tested on: human synovial cells derived from the rheumatoid arthritis patient; experiment: Promotion of growth of human synovial cells with FGF-8 ([3H]thymidine incorporation); format: cell-based; settings: FGF-8 10, 100 or 500 ng/mL tested
Protocol: as §1, with “When the activity of the anti-FGF-8 neutralizing antibody was examined, 200 μL of 0.2 vol % FBS/RPMI 1640 comprising FGF-8 (100 ng/mL) (0 group) or 0.2 vol % FBS/RPMI 1640 comprising FGF-8 (100 ng/mL) and anti-FGF-8 neutralizing antibody KM1334 (0.1, 0.3, 1, 3 or 10 μg/ml) was added to each well. After 48 hours of the culturing, 9.25 kBq per well of [^3H]thymidine was added.” left out
The same experiment as in Example 3 was performed using human synovial cells derived from the rheumatoid arthritis patient (procured from Toyobo). […] Six experiments were performed for each condition, and the mean values and the standard error were calculated.

B1: FGF-8: fibroblast growth factor FGF-8, androgen-induced growth factor; manufactured by Peprotech (protein, UniProt P55075 23-233, looked up)
Fibroblast growth factor 8: QEGPGRGPALGRELASLFRAGREPQGVSQQHVREQSLVTDQLSRRLIRTYQLYSRTSGKHVQVLANKRINAMAEDGDPFAKLIVETDTFGSRVRVRGAETGLYICMNKKGKLIAKSNGKGKDCVFTEIVLENNYTALQNAKYEGWYMAFTRKGRPRKGSKTRQHQREVHFMKRLPRGHHTTEQSLRFEFLNYPPFTRSLRGSQRTWAPEPR
- concentration at which FGF-8 significantly increased the production of matrix metalloproteinase-3 from the chondrocytes [1]: 100 ng/mL
- concentration at which FGF-8 significantly decreased the residual amount of glycosaminoglycan in extracellular matrix [2]: 100 ng/mL
- concentration at which FGF-8 significantly promoted the incorporation of [3H]thymidine into the rabbit synovial cells (rabbit synovial cells): 100 ng/mL
- concentration of glycosaminoglycan in the joint lavage fluid relative to the saline injected group [3]: 1.9 times
- weight of the patella after papain digestion relative to the saline injected group [3]: 40%
- concentration at which FGF-8 significantly promoted the incorporation of [3H]thymidine into the human synovial cells [4]: 500 ng/mL
